{
  "source": "paper PMC2652481",
  "molecular_target": "TAF-4 (UniProt O61707)",
  "test": "membrane recruitment of GFP::TAF-4 by Myr::FLAG::OMA-1-FL",
  "settings": "sites T239",
  "data": [
    {"substance": "OMA-1 (from UniProt G5EC86) MBK-2 coexpressed", "values": [
      {"measurement": "other: percent of cells with membrane GFP::TAF-4", "setting": "reference: kinase-dead MBK-2 (Y237A) coexpressed", "result": "stronger; reference 16"},
      {"measurement": "other: percent of cells with membrane GFP::TAF-4", "setting": "reference: no MBK-2 coexpressed", "result": "stronger; reference 8"}
    ]},
    {"substance": "OMA-1 (from UniProt G5EC86) T239A with MBK-2", "values": [
      {"measurement": "other: percent of cells with membrane GFP::TAF-4", "setting": "reference: wild type OMA-1-FL with MBK-2", "result": "weaker; reference 48"}
    ]}
  ]
}
